Positions count from the first letter of the chain named.
T1: mouse FcγRIII extracellular domain with C-terminal His tag (mouse, UniProt P08508 31-215)
T1 construct: Made on the basis of NCBI NP-034318.2; also called mFcγRIII; mFcgRIII
T1 chain: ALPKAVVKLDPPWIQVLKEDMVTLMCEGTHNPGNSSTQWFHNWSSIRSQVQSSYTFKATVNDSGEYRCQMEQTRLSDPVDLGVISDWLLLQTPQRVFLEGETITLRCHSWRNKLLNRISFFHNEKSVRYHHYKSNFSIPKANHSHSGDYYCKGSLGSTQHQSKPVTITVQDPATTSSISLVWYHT

T2: mouse FcγRII extracellular domain with C-terminal His tag (mouse, UniProt P08101 30-210)
T2 construct: Made on the basis of NCBI NP-034317.1; also called mFcγRII; mFcgRII
T2 sequence: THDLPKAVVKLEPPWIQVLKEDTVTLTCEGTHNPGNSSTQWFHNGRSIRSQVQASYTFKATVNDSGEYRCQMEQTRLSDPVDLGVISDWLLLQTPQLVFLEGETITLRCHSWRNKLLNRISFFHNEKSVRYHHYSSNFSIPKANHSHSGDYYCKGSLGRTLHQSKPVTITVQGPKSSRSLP

T3: mouse FcγRIII (mouse, UniProt P08508 31-215)
T3 construct: also called mFcγRIII; mFcgRIII
T3 chain: T1 chain

T4: mouse FcγRII (mouse, UniProt P08101 30-210)
T4 construct: also called mFcγRII; mFcgRII
T4 sequence: T2 sequence

B1: H237-MB516/MRAL-k0 (antibody, mouse IgG1, kappa)
heavy: QVQLQESGPGLVKPSETLSLTCAVSGHSISHDHAWSWVRQPPGEGLEWIGFISYSGITNYNPSLQGRVTISRDNSKNTLYLQMNSLRAEDTAVYYCARSLARTTAMDYWGEGTLVTVSSAKTTPPSVYPLAPGSAAQTNSMVTLGCLVKGYFPEPVTVTWNSGSLSSGVHTFPAVLQSDLYTLSSSVTVPSSTWPSETVTCNVAHPASSTKVDKKIVPRDCGCKPCICQPNEVEMVFIFPPKPKDVLTITLTPKVTCVVVDISKDDPEVQFSWFVDDVEVHTAQTQPREEQFNSTFRSVSELPIMHQDWLNGKEFKCRVNSAAFPAPIEKTISKTKGRPKAPQVYTIPPPKEQMAKDKVSLTCMITDFFPEDITVEWQWNGQPAENYKNTQPIMDTDGSYFVYSKLNVQKSNWEAGNTFTCSVLHEGLHNHHTEKSLSHSPGK
light: not shown
notes: copies: 2 + 2
B2: MB003 (antibody, mouse IgG1, kappa)
heavy: B1 heavy with Q229E, P230V, N231P, E234S, M235S
light: not shown
notes: copies: 2 + 2
B3: H237-MB508/MRAL-k0 (antibody, mouse IgG1, kappa)
heavy: B1 heavy with Q229E, P230A, N231Y
light: not shown
notes: copies: 2 + 2
B4: H237-MB520/MRAL-k0 (antibody)
heavy: B1 heavy with Q229E, P230T, N231Y, M235W
light: not shown
notes: copies: 2 + 2
B5: H237-MB514/MRAL-k0 (antibody, mouse IgG1, kappa)
heavy: B1 heavy with Q229I, N231A
light: not shown
notes: copies: 2 + 2
B6: H237-MB469/MRAL-k0 (antibody, mouse IgG1, kappa)
heavy: B1 heavy with Q229E, P230D, N231Y, M235E
light: not shown
notes: copies: 2 + 2
B7: H237-MB484/MRAL-k0 (antibody, mouse IgG1, kappa)
heavy: B1 heavy with Q229E, P230T, N231Y, M235S
light: not shown
notes: copies: 2 + 2
B8: H237-MB522/MRAL-k0 (antibody, mouse IgG1, kappa)
heavy: B1 heavy with Q229E, N231A, M235W
light: not shown
notes: copies: 2 + 2
B9: H237-MB485/MRAL-k0 (antibody, mouse IgG1, kappa)
heavy: B1 heavy with Q229E, P230V, N231Y, M235S
light: not shown
notes: copies: 2 + 2
B10: H237-MB518/MRAL-k0 (antibody, mouse IgG1, kappa)
heavy: B1 heavy with Q229E, P230D, N231Y, M235W
light: not shown
notes: copies: 2 + 2
B11: MB021 (antibody, mouse IgG1, kappa)
heavy: B1 heavy with Q229T, P230E, N231P, E234S, M235S
light: not shown
notes: copies: 2 + 2
B12: H237-MB488/MRAL-k0 (antibody, mouse IgG1, kappa)
heavy: B1 heavy with Q229E, M235S
light: not shown
notes: copies: 2 + 2
B13: H237-MB489/MRAL-k0 (antibody, mouse IgG1, kappa)
heavy: B1 heavy with M235S
light: not shown
notes: copies: 2 + 2
B14: MB016 (antibody, mouse IgG1, kappa)
heavy: B1 heavy with Q229V, P230V, N231P, E234S, M235S
light: not shown
notes: copies: 2 + 2
B15: H237-MB512/MRAL-k0 (antibody, mouse IgG1, kappa)
heavy: B1 heavy with Q229E, P230V, N231Y
light: not shown
notes: copies: 2 + 2
B16: H237-MB483/MRAL-k0 (antibody, mouse IgG1, kappa)
heavy: B1 heavy with Q229E, P230N, N231Y, M235S
light: not shown
notes: copies: 2 + 2
B17: H237-MB468/MRAL-k0 (antibody, mouse IgG1, kappa)
heavy: B1 heavy with Q229E, P230A, N231Y, M235E
light: not shown
notes: copies: 2 + 2
B18: H237-MB471/MRAL-k0 (antibody, mouse IgG1, kappa)
heavy: B1 heavy with Q229E, P230T, N231Y, M235E
light: not shown
notes: copies: 2 + 2

Legend:
[1] = molecular target: T1, mouse FcγRIII extracellular domain with …; assay: SPR Biacore T200
Method: (§1) Each altered antibody was analyzed for its interaction with each Fcγ receptor prepared above using Biacore T100 (GE Healthcare Japan Corp.), Biacore T200 (GE Healthcare Japan Corp.), Biacore A100, or Biacore 4000. The running buffer used was HBS-EP+ (GE Healthcare Japan Corp.). The assay temperature was set to 25° C. The sensor chips used were chips prepared by immobilizing Protein L (ACTIGEN or BioVision) onto Series S Sensor Chip CM5 (GE Healthcare Japan Corp.) or Series S Sensor Chip CM4 (GE Healthcare Japan Corp.) by the amine coupling method.
(§2) In order to calculate the KD value of each altered antibody for FcγR, kinetic analysis was conducted according to the following method: first, the antibody of interest was captured onto any of these chips and allowed to interact with mFcγR diluted with a running buffer. For the obtained sensorgram, the assay results were globally fit into the 1:1 Langmuir binding model using Biacore Evaluation Software to calculate an association rate constant ka (L/mol/s) and a dissociation rate constant kd (1/s). From these values, the dissociation constant KD (mol/L) was calculated.

[2] = molecular target: T2, mouse FcγRII extracellular domain with …; assay: SPR Biacore T200
Method: as §1, §2

mouse FcγRIII = molecular target: T3, mouse FcγRIII; assay: SPR Biacore 4000, KD ratio
Method: as §1, §2

mouse FcγRII = molecular target: T4, mouse FcγRII; assay: SPR Biacore 4000, KD ratio
Method: as §1, §2

Binder	relative mFcγRIII-binding activity (mIgG1 = 1) [1]	relative mFcγRII-binding activity (mIgG1 = 1) [2]	relative mFcγRIII-binding activity (mIgG1 = 1) (mouse FcγRIII) [fold]	relative mFcγRII-binding activity (mIgG1 = 1) (mouse FcγRII) [fold]
B1	1.6	38.6		
B2			1.51	5.06
B3	0.4	5.5		
B4	1.3	1.8		
B5	0.2	4.5		
B6	2.8	57.1		
B7	1.1	14.9		
B8	0.1	1.5		
B9	0.5	5		
B10	0.4	1.2		
B11			3.58	8.52
B12	1.8	28.7		
B13	1.1	6.9		
B14			1	1.15
B15	0.3	3.5		
B16	0.9	9.4		
B17	2.8	63.1		
B18	4.8	91.4		

From patent publication US20150203577A1 (Chugai, published 2015)
